According to a protein production outcome set (Wang et al. 2014):

Test: label from the status in PepcDB records

Sequence	protein production
MVKKNVGLRFLSILILMALLIGNVQSFNVAAAEGVIVNGTQFKDTSGNVIHAHGGGMLKHGDYYYWYGEYRDDSNLFLGVSCYRSKDLVNWEYRGEVLSRNSAPELNHCNIERPKVMYNASTGEFVMWMHWENGINYGQARAAVAYSKTPDGKFTYIRSFRPMQDTGVMDHGLPGYMSRDCNVFVDTDGKGYFISAANENMDLHLYELTPDYKNIASLKAKLFVGQQREAPCLIKRNGYYYLITSGCTGWNPNQAKYAYSKDLASGWSQLYNLGNSTTYRSQPTFIIPVQGSSGTSYLYMGDRWAGAWGGKVNDSQYVWLPLNFISDTTLELPYYDSVKIDASSGIISEYIPDTTRYKLVNKNSGKVLDVLDGSVDNAAQIVQWTDNGSLSQQWYLVDVGGGYKKIVNVKSGRALDVKDESKEDGGVLIQYTSNGGYNQHWKFTDIGDGYYKISSRHCGKLIDVRKWSTEDGGIIQQWSDAGGTNQHWKLVLVSSPEPSPSPSPQVVKGDVNGDLKVNSTDFSMLRRYLLKTIDNFPTENGKQAADLNGDGRINSSDLTMLKRYLLMEVDL	failed
MVKMAKMANKFKELDRTAEEKYKKGRISFRVGRFEDALAAYGEAASAWKEMADLLFDKGKETRGKEFLEKARDAKSCYGMALFKLERYEEALEIVDADLKLKPENPTRWSNRGFVLSALGRNEEALEAFEKALAFDPKSPKILTSQGIVYFKMGFLKKSLETFDRALATEPRKASDWACKIPRFSFFSRNKAPIMKPDNIETWYWKGNVLLELGEKEKALNSFRKALESDPDHLNSLLSGGDLLCEFAEYGEAFKCYVRALKLSPGNEAAEKGKEFCEAKINE	failed
MVKPMHLFAVVDALEQAQQFQQVLASRDVSTELVQIEQLNARFLRHHPELALCVDLDGLWLSANGMKMQPDWQAEIPRLKRASLKSEMIARACQINEQPSLIDATAGLGHDSLLMAYLGAHVTLVERHPVLFTLLEDAKSKAENDPFLSKYMQRIHLIFQDAHYYLQQCNQDDRKVDVIYLDPMFPQRDQHHQVIKKQAQVKKQMQLLHLLLPEDGEMDLGDQLLPLAQQIASRVVVKRPKHAVFLNEQQPDHQWQGDACRFDAYFQISMLEHHHHHH	failed
MVKQCSPAHNIFERVSKCYVEKQQPHDVSIPNIRLTVSATGLAFGSVHQANANQNQIACFYFSCNFSSKSNHHQSQAIVREEIQKNLRPVRIVGHQSMASSWRRSIGNVRSFIGNSMGGLRGGQSAASWVVAGTIAYFLWIKPEQDLKKEQEARAALAMADTNQYVEKRKPIADPQVTGLIYGNKNGTDKSED	failed
MVKSYQRFEQAAAFGVIASNANCVWIPASSGNSNGSGPGQLITSALEDVNIWDIKTGDLVSKLSDGLPPGASDARGAKPAECTYLEAHKDTDLLAVGYADGVIKVWDLMSKTVLLNFNGHKAAITLLQFDGTGTRLISGSKDSNIIVWDLVGEVGLYKLRSHKDSITGFWCQGEDWLISTSKDGMIKLWDLKTHQCIETHIAHTGECWGLAVKDDLLITTGTDSQVKIWKLDIENDKMGGKLTEMGIFEKQSKQRGLKIEFITNSSDKTSFFYIQNADKTIETFRIRKEEEIARGLKKREKRLKEKGLTEEEIAKSIKESYSSFILHPFQTIRSLYKIKSASWTTVSSSKLELVLTTSSNTIEYYSIPYEKRDPTSPAPLKTHTIELQGQRTDVRSIDISDDNKLLATASNGSLKIWNIKTHKCIRTFECGYALTCKFLPGGLLVILGTRNGELQLFDLASSSLLDTIEDAHDAAIWSLDLTSDGKRLVTGSADKTVKFWDFKVENSLVPGTKNKFLPVLKLHHDTTLELTDDILCVRVSPDDRYLAISLLDNTVKVFFLDSMKFYLSLYGHKLPVLSIDISFDSKMIITSSADKNIKIWGLDFGDCHKSLFAHQDSIMNVKFLPQSHNFFSCSKDAVVKYWDGEKFECIQKLYAHQSEVWALAVATDGGFVVSSSHDHSIRIWEETEDQVFLEEEKEKELEEQYEDTLLTSLEEGNGDDAFKADASGEGVEDEASGVHKQTLESLKAGERLMEALDLGIAEIEGLEAYNRDMKLWQRKKLGEAPIKPQGNAVLIAVNKTPEQYIMDTLLRIRMSQLEDALMVMPFSYVLKFLKFIDTVMQNKTLLHSHLPLICKNLFFIIKFNHKELVSQKNEELKLQINRVKTELRSALKSTEDDLGFNVQGLKFVKQQWNLRHNYEFVDEYDQQEKESNSARKRVFGTVI	failed
MVKTFRQREEDIVRCNRCGFCEEVCPTYKATGEEFSLARGRNRLMRQSMEGKLDLTKEPEINQHIYSCLLCGACVAACPSSVITDTLIKTARAEITRAKGQPFPIRMALRGVLANQRRLTLGAKVLRFYQRSGARWLARHIGFLNLMGSLGKAEGLLPAIPEKTLRVQLPQLLKKPMKPRHKVAYFAGCMINNFFTAVGEATLRVYQENDIEVVVPTSNCCGIPHEAYGDIEMQIKLAKENLDAFSRYEVEAIVTDCASCAHGLHSYAELLQDDPHYGPLAAQLAAKVKDASQYLVEIGFKKEMGPVNATVTYHDPCHAARGLKVKEQPREILKSIPGVKFVEMNESDWCCGGAGSYNVTHYELSRKILARKMDNFKKTGAEYLATSCPACLMQLAHGLDVYRLSGKAIHVMQILDQAYQNRAVRSKAKAG	failed
MVKVAHVQLSSCCGCLVSLADTYEKLLDVLGAIDLVYSQTLADVREVPDDVDIILLEGSVCLSDHHAMEVALDSRKKAKILVALGACAATGNVTRFSKGNQPSKPVHDAFAPLTEVVKCDLAIPGCPPSPESIVAVVLAALNGDMEYLEPYAELAKYGSEACGCDLITKVINKSLCMGCGSCAAACPTRAVSMDAGRPLVDKEICIKCGSCSVQCPRIRFPDLIEKIE	failed
MVKVLILGQGYVASTFVAGLEKLRKGEIEPYGVPLARELPIGFEDIKIVGSYDVDRAKIGKKLSEVVKQYWNDVDSLTSDPEIRKGVHLGSVRNLPIEAEGLEDSMTLKEAVDTLVKEWTELDPDVIVNTCTTEAFVPFGNKEDLLKAIENNDKERLTATQVYAYAAALYANKRGGAAFVNVIPTFIANDPAFVELAKENNLVVFGDDGATGATPFTADVLSHLAQRNRYVKDVAQFNIGGNMDFLALTDDGKNKSKEFTKSSIVKDILGYDAPHYIKPTGYLEPLGDKKFIAIHIEYVSFNGATDELMINGRINDSPALGGLLVDLVRLGKIALDRKEFGTVYPVNAFYMKNPGPAEEKNIPRIIAYEKMRIWAGLKPKWL	not failed
MVLFVDFLLEWLEMMRTRVRETTYASYNSGIRQSIIPYFMDKKLTLTDIEENPKYLQDFYQHELSKGLSPNSVLRRHANIRKALQHAFHLGLIKSNPADRIERPKKQLEHHHHHH	failed
MVLGEFAPWRLWSLAGSAKDWRGSKQPRAMTDLVTNQAWTLIDNGRAADALRLTTGPVALPQASAGLLMAHAAALKALGRTDEALTFNRRAVARAPGDRFSWYNLAATLGDLALDDEAEGAARKTIALGLDVPEVRLVLGKALQGLHRYDEAEATFVRALAARPSDATVHLNLAQLRWMRSGRSDEALAPLDAAIARHPADVTLRTIRSNVLTFAGDHAGADATLEDALTRAPGDLAVRIAAARAAGAVGDRARMLAHAREAARLAPGALESQTVLCEALLAAGQADVAARTAEALVAAAPDDQYALVLRNTAWRITGDAQGDLFRDYAALVRTDRLETPEGWDSLDAFLDALRDRMLELHDLKTHPLNQSLRGGSQVPSLDRSRDPLVQAFFACAHKAVARYIEALGAGEDPIRRRRASDFAFAGGWSVRLRSEGFHADHVHPRGWISSAFYLDLPGRFDDETTRAGWLRFGRPGCLTEPALEAEHFIKPERGTLALFPSCLWHGTQPFTDADHRLTIAFDVVPR	failed
MVLLTMTKRLFKGLLAVSLAVSLHGGEVKEKKPVKPVKEDPQELAAKRVEAFSRFSNVVSEIEKKYVDKISISEIMTKAIEGLLSNLDAHSAYLNEKKFKEFQAQTEGEFGGLGITVGMRDGVLTVIAPLEGTPAYKAGVKSGDNILKINNESTLSMSIDDAINLMRGKPKTPIQITVVRKNEPKPLVFNIIRDIIKLPSVYVKKIKETPYLYVRVSGFDKNVTKSVLEGLKANPKAKGIVLDLRGNPGGLLNQAVGLSNLFIKEGVLVSQKGKNKEENLEYKANGRAPYTNLPIAVLVNGGSASASEIVAGALQDHKRAVIIGEKTFGKGSVQMLLPVNKDEAIKITTARYYLPSGRTIQAKGITPDIVIYPGKVPENENKFSLKEADLKHHLEQELKKIDDKTPNSKEADKDKKNEEEKEITPKMINDDIQLKTAIDSLKTWSIVDEKMDEKAPKKK	failed
